The text below walks through data of article PMC3282585 (Science Signaling, 2011).

For this test, the target named is T1, IL17RA-SEFIR (SEFIR domain-containing fragment of human IL17RA, residues 351 to 616) (human, UniProt Q96F46 351-616).
T1 sequence (looked up): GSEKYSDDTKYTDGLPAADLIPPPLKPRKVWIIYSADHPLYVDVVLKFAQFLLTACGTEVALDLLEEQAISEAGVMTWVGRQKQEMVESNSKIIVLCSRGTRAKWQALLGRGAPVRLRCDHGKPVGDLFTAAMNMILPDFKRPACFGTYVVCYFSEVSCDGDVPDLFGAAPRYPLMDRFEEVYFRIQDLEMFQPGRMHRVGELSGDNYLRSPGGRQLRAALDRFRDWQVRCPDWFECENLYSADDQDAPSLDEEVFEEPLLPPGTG
Briefly: SPR. (Surface plasmon resonance follows binding to a sensor surface in real time, without labels.)

B1: CC′ loop peptide of the Act1 SEFIR domain (peptide)
peptide: LDEDEHGLHTKY
As to B1, the binding result is reported as “binds”.
